Data from patent US20160272691A1, “COMPOSITIONS AND METHODS FOR TREATING CONDITIONS ASSOCIATED WITH y-HERPESVIRUSES” (NDSU RESEARCH FOUNDATION, priority 2013, published 2016).

What was measured:
Bcl-2, P10415 [1] = assay: not stated in the sentence (ITC implied)
KSHV Bcl-2 (KSHV) = assay: not stated in the sentence (ITC implied)
[2] = target: T1, γHV68 M11 residues 1-136 (murine γHV68), P89884; assay: ITC (Table 4; quantity and unit in Table 1)
T1 chain: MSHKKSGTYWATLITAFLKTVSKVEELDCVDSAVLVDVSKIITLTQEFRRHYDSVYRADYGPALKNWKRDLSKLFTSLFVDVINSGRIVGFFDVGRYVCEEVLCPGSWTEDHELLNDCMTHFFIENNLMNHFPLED

Bcl-2, P10415 [3] = assay: ITC (Table 4; quantity and unit in Table 1)
[4] = target: T2, His6-tagged Bcl-XL (residues 1-208, N52D, N66D) (human), Q07817; assay: ITC (Table 4; quantity and unit in Table 1)
T2 chain: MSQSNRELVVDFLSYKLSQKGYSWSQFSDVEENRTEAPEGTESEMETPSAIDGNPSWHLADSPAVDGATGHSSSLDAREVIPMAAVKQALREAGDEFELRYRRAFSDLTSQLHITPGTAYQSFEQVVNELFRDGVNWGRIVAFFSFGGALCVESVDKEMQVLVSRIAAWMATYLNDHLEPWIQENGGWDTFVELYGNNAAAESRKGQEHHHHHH

[5] = target: T1, γHV68 M11 residues 1-136 (murine …); assay: ITC
[6] = target: T1, γHV68 M11 residues 1-136 (murine …); assay: ITC, 25 °C
[7] = target: T2, His6-tagged Bcl-XL (residues 1-208, …); assay: ITC, 25 °C
[8] = target: T2, His6-tagged Bcl-XL (residues 1-208, …); assay: ITC

Sequence of Bcl-2, P10415 (P10415 1-211 limits assumed): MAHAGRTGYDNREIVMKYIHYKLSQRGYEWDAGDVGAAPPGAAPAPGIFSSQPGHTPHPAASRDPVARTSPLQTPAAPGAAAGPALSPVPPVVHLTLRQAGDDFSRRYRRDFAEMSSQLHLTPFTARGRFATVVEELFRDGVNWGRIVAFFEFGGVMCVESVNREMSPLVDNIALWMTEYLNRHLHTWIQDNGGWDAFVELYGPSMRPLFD

Binder	Kd [2]	Kd [4]	Kd [6]	ΔG [6]	ΔH [6]	ΔS [6]	Kd [7]	ΔG [7]	ΔH [7]	ΔS [7]	also measured
GSGTMENLSRRLKVTGDLFDIMSGQT (modifications not checked) [Beclin 1 BH3D peptide, wild type]	1.4 µM	1.9 µM	1.38 µM	-8.01 kcal/mol	-17 kcal/mol	-126 J/K · mol	1.95 µM	-7.79 kcal/mol	-10.4 kcal/mol	-36.9 J/K · mol	Kd (Bcl-2, P10415 [1]): 9 µM; Kd (KSHV Bcl-2 (KSHV)): 54 µM; Kd (Bcl-2, P10415 [3]): 10.4 µM; fold difference in TΔSapp versus binding to Bcl-XL [5]: 4 fold; fold difference in ΔHapp versus binding to Bcl-XL [5]: 2 fold
GSGTMENASRRLKVTGDLFDIMSGQT (modifications not checked) [Beclin 1 BH3D-derived peptide L112A]	4.3 µM	110 µM	4.33 µM	-7.32 kcal/mol	-11.3 kcal/mol	-56.1 J/K · mol	110 µM	-5.4 kcal/mol	-10.1 kcal/mol	-66.3 J/K · mol	fold reduction of binding versus WT BH3D [5]: 3 fold
GSGTMENLSRRAKVTGDLFDIMSGQT (modifications not checked) [Beclin 1 BH3D-derived peptide L116A]	178 µM	–	178 µM	-5.11 kcal/mol	-8.7 kcal/mol	-50.3 J/K · mol	–	–	–	–	fold reduction of binding affinity versus WT BH3D [5]: > 70 fold
GSGTMENLSRRLAVTGDLFDIMSGQT (modifications not checked) [Beclin 1 BH3D-derived peptide K117A]	0.7 µM	18.9 µM	0.66 µM	-8.44 kcal/mol	-16.5 kcal/mol	-113 J/K · mol	18.9 µM	-6.45 kcal/mol	-9 kcal/mol	-35.8 J/K · mol	Kd (Bcl-2, P10415 [3]): 24.5 µM; fold improvement of binding versus WT BH3D [5]: 2 fold; fold weakening of binding versus WT BH3D [8]: 10 fold
GSGTMENLSRRLKVTEDLFDIMSGQT (modifications not checked) [Beclin 1 BH3D-derived peptide G120E]	36.5 µM	–	36.5 µM	-6.06 kcal/mol	-12.5 kcal/mol	-90 J/K · mol	–	–	–	–	fold reduction of binding affinity versus WT BH3D [5]: 26 fold
GSGTMENLSRRLKVTGDLADIMSGQT (modifications not checked) [Beclin 1 BH3D-derived peptide F123A]	5.2 µM	408 µM	5.2 µM	-7.22 kcal/mol	-14.2 kcal/mol	-97.8 J/K · mol	408 µM	-4.63 kcal/mol	-7.34 kcal/mol	-38 J/K · mol	fold weakening of binding versus WT BH3D [5]: 4 fold; fold weakening of binding versus WT BH3D [8]: 10 fold
GSGTMENLSRRLKVTEALFDIMSGQT (modifications not checked) [Beclin 1 BH3D-derived G120E+D121A double mutant peptide]	6.4 µM	–	6.43 µM	-7.08 kcal/mol	-14.9 kcal/mol	-110 J/K · mol	–	–	–	–	fold better affinity versus the G120E peptide [5]: 5.7 fold; fold weaker affinity versus WT BH3D [5]: 4.7 fold
GSGTMENLSRRLKVTGALFDIMSGQT (modifications not checked) [Beclin 1 BH3D-derived peptide D121A]	1.3 µM	–	–	–	–	–	–	–	–	–	–
